Measured values as given in patent publication US20070077628A1.

T1: Flag-tagged Tsg101, wild type (UniProt Q61187)
T1 sequence: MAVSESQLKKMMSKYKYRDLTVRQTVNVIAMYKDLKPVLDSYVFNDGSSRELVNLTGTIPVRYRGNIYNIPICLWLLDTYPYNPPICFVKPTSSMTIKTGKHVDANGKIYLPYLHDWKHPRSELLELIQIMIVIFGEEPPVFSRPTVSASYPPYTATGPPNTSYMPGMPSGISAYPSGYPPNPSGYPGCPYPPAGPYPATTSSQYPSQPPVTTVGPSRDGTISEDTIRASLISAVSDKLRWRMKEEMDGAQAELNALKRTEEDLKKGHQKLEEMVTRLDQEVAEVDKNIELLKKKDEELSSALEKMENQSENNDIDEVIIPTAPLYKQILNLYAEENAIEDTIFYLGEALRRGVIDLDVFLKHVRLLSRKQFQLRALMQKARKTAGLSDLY

T2: endogenous Tsg101 of HEK-293T cells, Q99816
T2 chain: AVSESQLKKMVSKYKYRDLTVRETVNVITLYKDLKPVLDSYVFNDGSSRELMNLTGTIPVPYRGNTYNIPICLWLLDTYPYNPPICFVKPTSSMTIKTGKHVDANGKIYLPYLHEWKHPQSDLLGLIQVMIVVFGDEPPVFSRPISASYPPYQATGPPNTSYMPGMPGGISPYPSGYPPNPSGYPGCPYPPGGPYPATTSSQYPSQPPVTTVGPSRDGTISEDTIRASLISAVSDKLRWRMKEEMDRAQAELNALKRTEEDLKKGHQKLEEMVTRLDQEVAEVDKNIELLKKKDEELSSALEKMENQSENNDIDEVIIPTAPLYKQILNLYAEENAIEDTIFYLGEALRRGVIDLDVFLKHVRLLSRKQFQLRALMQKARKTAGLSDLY

T3: Flag-tagged Tsg101, wild type, Q61187
T3 chain: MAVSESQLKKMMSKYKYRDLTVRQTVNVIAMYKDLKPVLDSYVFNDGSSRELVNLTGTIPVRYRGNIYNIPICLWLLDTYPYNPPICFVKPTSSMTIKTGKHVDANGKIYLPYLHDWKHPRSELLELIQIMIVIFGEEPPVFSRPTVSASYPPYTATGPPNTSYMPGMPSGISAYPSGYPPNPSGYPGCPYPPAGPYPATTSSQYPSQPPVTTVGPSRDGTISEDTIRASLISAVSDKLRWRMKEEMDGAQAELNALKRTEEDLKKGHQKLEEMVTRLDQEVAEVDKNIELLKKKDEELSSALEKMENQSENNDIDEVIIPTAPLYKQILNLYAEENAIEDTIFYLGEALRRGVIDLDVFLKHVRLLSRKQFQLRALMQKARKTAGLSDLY

T4: Flag-tagged Tsg101, wild type (murine) (UniProt Q61187)
T4 sequence (looked up): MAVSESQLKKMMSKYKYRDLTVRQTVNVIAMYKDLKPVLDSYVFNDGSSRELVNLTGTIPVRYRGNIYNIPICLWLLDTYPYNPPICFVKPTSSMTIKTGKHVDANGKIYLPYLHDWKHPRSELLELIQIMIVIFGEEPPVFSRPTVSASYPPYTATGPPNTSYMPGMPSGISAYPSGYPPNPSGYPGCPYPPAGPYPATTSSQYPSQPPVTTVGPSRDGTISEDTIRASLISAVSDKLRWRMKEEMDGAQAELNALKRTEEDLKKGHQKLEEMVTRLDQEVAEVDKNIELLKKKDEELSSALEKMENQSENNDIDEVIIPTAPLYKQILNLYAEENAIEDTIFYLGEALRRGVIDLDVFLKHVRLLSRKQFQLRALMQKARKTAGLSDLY

B1: Ta1 ΔPTAP/PSAP (HA-tagged hTa1 with the PTAP motifs deleted) (protein)
chain: MPLFFRKRKPSEEARKRLEYQMCLAKEAGADDILDISKCELSEIPFGAFATCKVLQKKVLIVHTNHLTSLLPKSCSLLSLATIKVLDLHDNQLTALPDDLGQLTALQVLNVERNQLMQLPRSIGNLTQLQTLNVKDNKLKELPDTVGELRSLRTLNISGNEIQRLPQMLAHVRTLEMLSLDASAMVYPPREVCGAGTAAILQFLCKESGLEYYPPSQYLLPILEQDGIENSRDSPDGPTDRFSREELEWQNRFSDYEKRKEQKMLEKLEFERRLELGQREHTQLLQQSSSQKDEILQTVKEEQSRLEQGLSEHQRHLDAERQRLQEQLKQTEQNISSRIQKLLQDNQRQKKSSEILKSLENERIRMEQLMSITQEETESLRRRDVASAMQQMLTESCKNRLIQMAYESQRQNLVQQACSSMAEMDERFQQILSWQQMDQNKAISQILQESAMQKAAFEALQVKKDLMHRQIRSQIKLIETELLQLTQLELKRKSLDTESLQEMISEQRWALSSLLQQLLKEKQQREEELREILTELEAKSETRQENYWLIQYQRLLNQKPLSLKLQEEGMERQLVALLEELSAEHYLPIFAHHRLSLDLLSQMSPGDLAKVGVSEAGLQHEILRRVQELLDAARIQPELKPPMGEVVPAELEVQASECVVCLEREAQMIFLNCGHVCCCQQCCQPLRTCPLCRQDIAQRLRIYHSS
B2: HA-tagged human Ta1, wild type (enzyme, not shown: small tags and cut ends)
chain: MPLFFRKRKPSEEARKRLEYQMCLAKEAGADDILDISKCELSEIPFGAFATCKVLQKKVLIVHTNHLTSLLPKSCSLLSLATIKVLDLHDNQLTALPDDLGQLTALQVLNVERNQLMQLPRSIGNLTQLQTLNVKDNKLKELPDTVGELRSLRTLNISGNEIQRLPQMLAHVRTLEMLSLDASAMVYPPREVCGAGTAAILQFLCKESGLEYYPPSQYLLPILEQDGIENSRDSPDGPTDRFSREELEWQNRFSDYEKRKEQKMLEKLEFERRLELGQREHTQLLQQSSSQKDEILQTVKEEQSRLEQGLSEHQRHLDAERQRLQEQLKQTEQNISSRIQKLLQDNQRQKKSSEILKSLENERIRMEQLMSITQEETESLRRRDVASAMQQMLTESCKNRLIQMAYESQRQNLVQQACSSMAEMDERFQQILSWQQMDQNKAISQILQESAMQKAAFEALQVKKDLMHRQIRSQIKLIETELLQLTQLELKRKSLDTESLQEMISEQRWALSSLLQQLLKEKQQREEELREILTELEAKSETRQENYWLIQYQRLLNQKPLSLKLQEEGMERQLVALLEELSAEHYLPIFAHHRLSLDLLSQMSPGDLAKVGVSEAGLQHEILRRVQELLDAARIQPELKPPMGEVVTPTAPQEPPESVRPSAPPAELEVQASECVVCLEREAQMIFLNCGHVCCCQQCCQPLRTCPLCRQDIAQRLRIYHSS
B3: ΔCC-hTa1 (HA-tagged hTa1 with the coiled-coil deleted) (protein)
chain: MPLFFRKRKPSEEARKRLEYQMCLAKEAGADDILDISKCELSEIPFGAFATCKVLQKKVLIVHTNHLTSLLPKSCSLLSLATIKVLDLHDNQLTALPDDLGQLTALQVLNVERNQLMQLPRSIGNLTQLQTLNVKDNKLKELPDTVGELRSLRTLNISGNEIQRLPQMLAHVRTLEMLSLDASAMVYPPREVCGAGTAAILQFLCKESGLEYYPPSQYLLPILEQDGIENSRDSPDGPTDRFSREELEWQNRFSDYEKRKEQKMLEKLEFERRLELGQREHTQLLQQSSSQKDEILQTVKEEQSRLEQGLSEHQRHLDAERQRLQEQLKQTEQNISSRIQKLLQDNQRQKKSSEILKSLENERIRMEQLMSITQEETESLRRRDVASAMQQMLTESCKNRLIQMAYESQRQNLVQQACSSMAEMDERFQQILSWQQMDQNKAISQILQESAMQKAAFEALQVKKDLMHRQIRSQIKLEELSAEHYLPIFAHHRLSLDLLSQMSPGDLAKVGVSEAGLQHEILRRVQELLDAARIQPELKPPMGEVVTPTAPQEPPESVRPSAPPAELEVQASECVVCLEREAQMIFLNCGHVCCCQQCCQPLRTCPLCRQDIAQRLRIYHSS

Assays:
[1] = biological target: T1, Flag-tagged Tsg101, wild type
[2] = biological target: T2, endogenous Tsg101 of HEK-293T cells, …
[3] = biological target: T3, Flag-tagged Tsg101, wild type, Q61187
[4] = biological target: T4, Flag-tagged Tsg101, wild type (murine); experiment: cell-based or functional assay

Molecule | in vitro ubiquitylation of immunoprecipitated Tsg101 (125I-ubiquitin) [1] | HIV-1 infectivity, single-cycle infection assay [2] | also measured
C675A-hTa1 (HA-tagged) | only background ubiquitylation was observed with two RING mutants of hTa1 | – | –
H695A-Ta1 (HA-tagged) | only background ubiquitylation was observed with two RING mutants of hTa1 | – | –
B1 | – | mediated a relatively mild effect on viral infectivity | –
B2 | – | overexpression of hTa1 reduces infectivity by approximately 40% | HIV-1 infectivity, single-cycle infection assay [3]: when combined with an ectopic Tsg101, hTa1 exerted a significantly greater inhibitory effect; in vitro ubiquitylation of immunoprecipitated Tsg101 (125I-ubiquitin) [3]: Substantial Tsg101 ubiquitylation was observed in complexes pre-incubated with WT-hTa1; decrease in GFP-Gag secretion into virus-like particles (VLPs), HEK-293T cells [4]: > 90%
B3 | – | RING or CC mutants of hTa1 potently inhibited HIV-1 infectivity even in the absence of an ectopic Tsg101 | –
